Measured values reported in IntAct's records for PubMed 12732628.

B1: Molybdopterin synthase sulfur carrier subunit (Homo sapiens), O96033 (parent)
chain: MVPLCQVEVLYFAKSAEITGVRSETISVPQEIKALQLWKEIETRHPGLADVRNQIIFAVRQEYVELGDQLLVLQPGDEIAVIPPISGG
partner: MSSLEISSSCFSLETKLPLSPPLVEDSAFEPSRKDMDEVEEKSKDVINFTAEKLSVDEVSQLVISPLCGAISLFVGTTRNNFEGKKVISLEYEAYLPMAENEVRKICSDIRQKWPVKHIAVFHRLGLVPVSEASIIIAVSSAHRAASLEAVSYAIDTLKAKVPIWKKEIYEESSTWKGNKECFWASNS

Variants of: B1
Details: with moc2b_human MOCS2, O96007

Row | effect of a mutation on the interaction | Variant
1 | disrupting interaction | MVPLCQFEVLYFAKSAEITGVRSETISVPQEIKALQLWKEIETRHPGLADVRNQIIFAVRQEYVELGDQLLVLQPGDEIAVIPPISGG [V7F]
